Reference: article PMC4877046, “TrmBL2 from Pyrococcus furiosus Interacts Both with Double-Stranded and Single-Stranded DNA” (PLoS ONE, 2016)

Legend:
[1] = biological target: T1, TrmBL2 (Pyrococcus furiosus, UniProt Q8U3H1 1-264); experiment: magnetic tweezers (persistence length); settings: half-coverage, Hill coefficient 3.0 +/- 0.33; EMSA: PBS, 10 nM DNA, 1 h, room temperature, 8% PAGE in PBS; magnetic tweezers: PBS pH 7.4, 5 mM NaN3, room temperature
T1 sequence: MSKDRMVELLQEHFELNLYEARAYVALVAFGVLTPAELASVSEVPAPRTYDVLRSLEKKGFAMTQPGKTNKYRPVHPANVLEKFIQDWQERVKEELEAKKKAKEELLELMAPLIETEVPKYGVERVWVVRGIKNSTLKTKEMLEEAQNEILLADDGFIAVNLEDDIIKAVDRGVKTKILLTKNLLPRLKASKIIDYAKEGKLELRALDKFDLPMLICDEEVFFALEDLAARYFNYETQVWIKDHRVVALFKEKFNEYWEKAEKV

[2] = biological target: T1, TrmBL2; experiment: EMSA; apparent Kd, Hill fit, Hill coefficient 2.9 +/- 0.4; Fig 6 legend gives 2.0 uM; EMSA: PBS, 10 nM DNA, 1 h, room temperature, 8% PAGE in PBS; magnetic tweezers: PBS pH 7.4, 5 mM NaN3, room temperature; settings: protein: recombinant; chain copies: 2; label: 5'-Cy5
[3] = biological target: T1, TrmBL2; experiment: EMSA; apparent Kd, Hill fit, Hill coefficient 4.4 +/- 0.6; Fig 6 legend gives 1.0 uM; EMSA: PBS, 10 nM DNA, 1 h, room temperature, 8% PAGE in PBS; magnetic tweezers: PBS pH 7.4, 5 mM NaN3, room temperature; settings: protein: recombinant; chain copies: 2; label: 5'-Cy5 on S1; blunt
[4] = biological target: the molecule itself; experiment: SEC; gel filtration on a 60 ml Superdex 200 column, 40 mM HEPES pH 7.5, 150 mM NaCl; last step of the purification

dsDNA tether for magnetic tweezers
K half [1]: 300 nM

B1: 60mer ssDNA (ssDNA)
DNA: GATATAATATACCTATATCAATGGCCTCCCACGCATAAGCGCAGATACGTTCTGAGGGAA
Kd [2]: 2100 ± 100 nM

B2: 60mer dsDNA (dsDNA)
DNA 1: GATATAATATACCTATATCAATGGCCTCCCACGCATAAGCGCAGATACGTTCTGAGGGAA
DNA 2: TTCCCTCAGAACGTATCTGCGCTTATGCGTGGGAGGCCATTGATATAGGTATATTATATC
Kd [3]: 1070 ± 30 nM

B3: TrmBL2 from Pyrococcus furiosus (natural protein, UniProt Q8U3H1 1-264, looked up)
chain: MSKDRMVELLQEHFELNLYEARAYVALVAFGVLTPAELASVSEVPAPRTYDVLRSLEKKGFAMTQPGKTNKYRPVHPANVLEKFIQDWQERVKEELEAKKKAKEELLELMAPLIETEVPKYGVERVWVVRGIKNSTLKTKEMLEEAQNEILLADDGFIAVNLEDDIIKAVDRGVKTKILLTKNLLPRLKASKIIDYAKEGKLELRALDKFDLPMLICDEEVFFALEDLAARYFNYETQVWIKDHRVVALFKEKFNEYWEKAEKV
notes: TrmBL2 (30.6 kDa) from Pyrococcus furiosus; This E. coli material is dimeric by gel filtration; also called archaeal "TrmB-like" protein TrmBL2; source: E.coli BL21 (DE3), purified (heating to 80°C, Q-Sepharose, Superdex 200)
stoichiometry N [4]: 2
